This passage reports protease stability score results from the NTF2 design screens of Basanta et al. (2020).

A short description of this series: protease stability score; higher = more stable; yeast display proteolysis, trypsin and chymotrypsin.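 Further: relative to predicted unfolded state with 0 unfolded-like and 1 meaning tenfold more protease.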
In the case of “DDSRRVAEEVSELIKILYDTGDWRHLHELLDPHVRIEIGDKEFHGRDTWLREMIRADHVEYHTHDYRSQGNKIFIRGHLIVHINGRTHKEDVRLHVHKVDGQWIIDSIEMK”, the protease stability score came out at 1.01.

In the case of “DDSSELLRKLLEELLRAYKTGDFDTLIEFFDPDVKLEFNGREVHGMDHFISEHRHFIRRFPGIRIHIDDVKWHTQGDKAQLHMDGTEDFDGKRRRVELIFIIEKFDGRWFFSSIRWHNI”, the protease stability score is 1.53.

For the sequence “DDTDKLLKEYLEMEMEMIRTGNEHIFTRLADPNVRIEQGDKHFHGREEYKRLMEEHFEKIQHAKIEFRVHDIKRIGDKMYIRGEFIVHVGEYHESQDRIFINRKIDGRWYVEEIIIR”, the protease stability score turned out to be 1.25.

For “DDTDRRSRILTELSLNLFRTGDWKLFEEMADPHARMSMDVDGKELRHHGRESVSHVWHRQLFELGVDHYDLHDVKVIDGVMHVFSEVKVGDKRLELLIVAEKVNGKWHIREVHIKII”, the protease stability score came out at 0.202.

Regarding “DDTEDLATELSKIIRTVLRTGDWHTLRELADPNMRLNVNGQERHGMDLVREIHLNAGWQRVTVIIRHLHIDENEMHLETETRYDGQKHRVHVHVKKINGRWVIDFIIIH”, the protease stability score is 1.09.

Sequence “DDTKKHMEKIFRLMIEWWETGDFDRMENNADPHVRAHIGDKEIHGREEMIKLIRELIEELGIDHEETEEVRVYDGRIHVHSRLHINGKEIEVQLHSQVVDGRIESFELHVITR” showed a protease stability score of 1.05.

Take “DDTLRDLFHLIELFHKALKTGDEQKMRENLDPHAKFDWDGRDYVGMEEVVKYVVEARIESTFHIHSVRKIGNKLDVDGTFSLEVDYNGKKEDIHSRQHHFIYKVDGQWIIKRIIIK”: the protease stability score came to 0.537.

For “DDTRELSKHWHERWLHAHETGDEELLLSLLDPHVRLEVGDKHLIGRDKLKWHMEEEIEFFKNAKLHVRRVSIQGNKIEMELEVRIDGVRHEVHIHYDIIDGRITRFEVRIV”, the protease stability score was determined as 0.21.

“DDVEKDARWLVDELIHLLETGDEDTLLKLADPNTRIEIGDFHFHGRRDLKRILHEMRVKLDHLRIEHLDAQGEWIYIQFHYHQTINVNGRVVHEQRRVELESIKINGRWTIHFFKVK” displayed a protease stability score of 1.28.

“DDVEKLTREWFEKYLHTIQTGDEHSFERLADPNVRLHAENREYHGMEVISERLREEQDKFKGLRITHFHITHIINNEDEMYVDGRIVVEWNGQKEILTVHLIAFKVNGKWILKRYVKK”: the protease stability score was 1.78.

On to “DDVERIVKHMLELHIQSWLTGNEHLMHRLADPNVRSHIGDKERVGRHELSEMMIKHWEHLRIHRVEIRDSDVVGEKAESNTHVVVIFNGVEVRFDVRIEVVSINGRLHSSHIIIE”, for which the protease stability score is -0.029.

Consider “DDVHEDATRAIKILKHNLETGDEDKLMTMMDPNVRFEDGNKHAHGREQTVQVLLEIIEKLGVSKFSHEIKDLKIVDGKLHLHGTLKVDGKTVDLEVVSLKINGRWLIKSIHLH”, for which the protease stability score was 1.19.

As to “DDWEEEVHKFSRLFIKSVETGDEDTLHKFADPNVMLHQGDKEYHGREMFVRWSNELLRHLGVSKVRARMHDDKAYNGVVHLDLENRFNGRTVRIEVRIEKINGKWLMTEVRIE”, the protease stability score was found to be 0.622.

“DDWEEILREMIERWLKIFLTGDEEQLQRLADPDTRLNFNGREHHGMETLRRWRHRYEEEMRVRRINVKHEEFQGEKIRMDTELHTEVNGVKIITRTELIFIIINGRIKEVEIRVK” yielded a protease stability score of 0.853.

Sequence “DDWEEVLKDFLKKYFEALHTGNEELFLLMLDPHVKFDWNGQKMVGREKEIETLRREIKSAGVTRIERELEIKDTRLVDGRLRIDLSIHLNFNGRKFEIDVELHLNKINGRWEIESIKYR” came in with a protease stability score of 1.15.

“DDWEEVTRRSVEEFIRAIDTGDEDFLRTMVDPDTRVEINGVEVHGMEELMRLFSEHIKKVKNIRFHLEIRHVESQGDKIRIEGHEESNVDGRHRKKSTEMHWIKVDGRWFLHRVILR” showed a protease stability score of 1.39.

Sequence “DDWEKLYEELTRLWLKLLITGDEEILIKLMDPHYRYHQGDKELHGRESYAEEVRREYEHARVKIHVERIHVFENHVEVNGELKIEINGRHYSIRTRIHLNIVNGKIKSIEIRTD” came in with a protease stability score of 1.39.

Regarding “DDWERLYLHLARLWFELILTGDEETIDKMVDPHTRLEIGDFESHGREELRYLFHHMRSHEIRIRSFDTYGDKAIIDGEIDTIINGRRMIVKIRLHVIIINGRVHSIKVEHE”, the protease stability score worked out at 1.08.

Sequence “DDWHEEMREMLELLLRALFTGDEKHLVENLDPNVKIIFDGKDLHGRRDASKLIHEYGVDHITRHKIHDSKFFNGRLDVDGIFDQTVNGRREEVHRRIILLKFDGRWWIHRIEIR” displayed a protease stability score of 1.63.

In turn, “DDWHEILKHHFDNEVESILTGDEDSIKKMIDPHVRLEVNGREVHGMEEFARVMIEIRFRRIDLRERDIFNGVLHLRLEVDWEYGDKRFETEEEVVYFKVNGRWILESMRVR” had a protease stability score of 1.26.

“DDWLEDTKRLLEEFRQAINTGDEELLKILFDPHVRMNIDGVELHGRSVLEHFLERYDVIKVRRHHITDLKFQGNYLIIHLKTDIQIDIGDKHYKEEREVEMVVEKVNGRWIIRLMTER” came in with a protease stability score of 1.4.

The sequence “DDYDHITELALREIERVLHTGDEEDLRRMIDPHVRIDIDGKDIHGWENLFKHIEEERRRFPNLQIDWELKDTRKQGDKIILHGQIHIQQGDKEIERDFTIKAVKINGQWIVKTFHIR” came in with a protease stability score of 1.63.

For the sequence “DDYEKDDKHFLNVFLHMLETGDWEKLEKLADPRVRQDVDGVEYHGMEEAVEVWHRLRHKFKGLTLREVTIHDIRTIDGKIDLDVEFHFDFNGREISRRVIIIVDKINGRWELKSMKEK”, the protease stability score stood at 0.074.

For “DDYEKSSKVVWQILVRALETGDEEELRDLFDPHVRIQIGEFHFHGWETVHEHMRRADHIIVRDSKSRDIDHQGNKVILHVDLHIEFTYNGVERSTTFRSNMIMVKVNGKWVIEKIHLQ”, the protease stability score was found to be 1.55.

As for “DEADRFREFAKRLYLEKSNTGDWEELIRLFDPHARYEYGDKEMHGRDTIDFLREMLGIDRIQLRHVNDHSVDLQGDKIHIDGTVVEEWNGQEYRSRVILILRKVDGRWYLETMHVD”, the protease stability score worked out at 0.409.

As to “DEAEEHMRRYSELMMKSFLTGDEHTLRKLADPHTKLIFNGKELHGREEVARVFTWSREELGVDHQDVRHVSVRLVDGRVHVDIILEVNVGDKRFQVHIHLTILKYDGRWFVESVHIEIR”, the protease stability score stood at 0.285.

For “DEAHEWLKTLADLFFHWMLTGDFEHWIDYLDPDAKIEFEGRSNHGRENIYQLLLELKQEIRVRDYELKDVRIQGEKLLLNVHLHGHIGDKEIRTDTVLRLRVVDGRLKEVHIEIR”, the protease stability score worked out at 1.52.

For “DEAQEIVEFVFKILAEFQETGDEDSLKHLLDPNVRILQGNKELHGRDQNIKRLREELDRFGVDKFRVELRLEHVTIIDGRLHLDMRLNLDVNGVEIRLEVHFVLIKVDGQWSIHEVRFH”, the protease stability score came out at 1.61.

Sequence “DEARVIFEEFIRQLLHAIRTGDFDLYRHLADPHVQVEIGDKVFWGREVITEFEDDLLRRMGVNHVDMRIRIFEIIDGRIHIVGEHRIDVNGRDEHIDTRVLVHKVDGRWVLRRERRT” returned a protease stability score of 0.647.

For “DEATEAWRVVVELIKRANETGDEETRSENMDPETRMSIDGVDFIGREEVIKHVHKVKNMRIKHVEINDVRIQGDKIHVRGTLHGTVNGRETRIDVVLYVWKINGQWIIHSIEFI”, the protease stability score worked out at 1.5.

As to “DEATEKAKKAYELWMHSLKTGDEHHLKNLMDPDVRVIIDGVDMHGWEAAHFERRRFDHIHRVHVDHYEFQGNKSIWDGTVDGKVGDKEHRNRRIIIMNVVDGRYKSIHLHVE”, the protease stability score is 0.991.

“DEATKDAERIIEMFIRAIETGDEKVFKRLLDPNVRLVVDGKEFHGREKFIEWLRRIDVTHQVHFRLHDSDMQGDKLHLDSSEIHDVKYNGVRFVDHYRVHLQIHKFDGRWHLENIIIR” gave a protease stability score of 1.51.

Turning to “DEATKSAEIAVRLLKKTQDTGNEELERKLVDPHVRVDVNGRESHGWEHLVEIIREMRVHSLTVTRSEVQGNKVFNDGILDGEINGVRVHIYIHIIIEKINGQWVIRELRFH”, the protease stability score came out at 0.803.

Regarding “DEDAHLIEHLVHLMLHATNTGDEDILKDLMDPNMKIQIGDKEFHGREEFEEMHRRADHLETTDWKLHSVDIQGDKIHLDTRVDRVIIINGKITREDTRTELDVRKIDGRWVVTRISVE”, the protease stability score was determined as 1.27.

In turn, “DEDDDLALHMFELLLHVWTTGDERIMHELLDPHARLDFNGRTFHGREAFIHYMHEIFRHIRINDSTVRHIRVIDGRLDIESHVDIRVGDKRFEMETHLIVLKVDGKWQVTLYKLS” displayed a protease stability score of 1.4.

In the case of “DEDDEAAEMAVRFFIEILLTGNENIHSKLLDPNVKVNIGEFESIGRKEVEKTFKEFVHHMWIRHIEVHKWSVYDGQVDVESRLDGQVNGQHVNVEVLIIIVKINGKWFLRSLDFR”, the protease stability score was determined as 1.71.

“DEDDEAAQEAVKIVEEVTKTGNWRVLLELLDPHTRVHTEHHELHGMEEYVREVQKMMQDFGVTKVEVRFHEIIIIGEKIHMRVTIHVNGVTLDTEVVSLKYNGRWYLHTLRMK”: the protease stability score amounted to 1.

Sequence “DEDDEAVKRFIDEFVHSMRTGDEEKLYRLADPHVRSVIDGVEFVGMHWLTTELHHLRVQRLEFEFKDIHFQGDKAHVRGHLILTLHFNGREYVVRREVELIILKINGRWHLHEFIWR” returned a protease stability score of 1.68.

For the sequence “DEDDEDADNAIRLIVHSMLTGNEDFFSRLLDPNVRLDYNGVEFIGREDVVRFWNQMRFEFRVEVRRTSSQGDKVNWDIRLRIILHFNGKRHDRLHDTVLISRKYNGKWHVEQIEVR”, the protease stability score amounted to 1.54.

“DEDDEDSEEASRRMVETHLTGDEDKQSKMMDPNVKFLFNGVEFHGWELLHKIWTEFGIKHHQLKSVEVRNINGQVRVHVDGVIDVNGVSLKSELNFVAEKVDGRWRVKRIEIHIR”: the protease stability score worked out at 1.58.

“DEDDEDTRRLLKLLSDAEETGDEELLRHLADPHVRVHVGDKEWHGWDAFVRFLRHIRIETFHVRRIRVQGDKVDVDGQTVVTINGRRHELKTTIILIKIDGQWVIEKLTIH” registered a protease stability score of 1.79.

Sequence “DEDDEFERLFWKKWVDALRTGNEEIIRKMVDPNVKIVFNGKELHGREAVDIVLKRIDHIDDIKLRHSRVVDGRVEITTKIHMKVGDKSIDSETHMSFEKIDGRWIITEMFFV” came in with a protease stability score of 2.59.

On to “DEDDEFMKRLAEEVIKNLHTGDWESLVHLMDPNALFEFDGVRNHGREQTDRFWEEVHERYPNVREKWDIHTIDVFNGRAKVDSRITFHFDGRDYVHKSEFHLIVFNGKVKSVHIHIR”, for which the protease stability score turned out to be 0.158.

Consider “DEDDEHSEEIAKMWMHLVHTGDFDSETKLVDPHVKFKIDGREIIGREVFMQLMIELRHILRDSKIDDLNRQGEFLHVHGQVHGELIIGDKNFEINHKVEFIIIKVNGRWFAHTIIFR”, for which the protease stability score was determined as 1.64.

Consider “DEDDEHTHEMLKLVITAINTGDFEKWRHMADPNVRSDIDGQEVHGRETIIEVWRRIEKELGIENVEVHTRRVEVINGVAHIDGHIRFNGRTHKVRIEVYLINGKIQEFVLSRH”, for which the protease stability score worked out at 1.45.

The sequence “DEDDEKEKFLLELLLEALKTGDWQIFEDLADPHMKFIFNGREYHGMETFSRLMEEFLKRFPNLRIRRIEIEDHHKQGNKVELDARLYSSQGNKRLNHKMILISEKINGRWLIHSLSIE” showed a protease stability score of 2.61.

For the sequence “DEDDELAERFFRFWLEFVLTGDEDSSSHLLDPDVRTKYNGVDFHGMESHSKLLLELRIKDFRFTRIRIINGRLEIHGRMHQEIDGKKVDTTVTIDSIKINGKWRVKTINIG”, the protease stability score was found to be 1.73.
